Values quoted from earlier work as cited in publication PMC4659487.

Target: MurC (Escherichia coli) (UniProt P17952)

Kd: 1000 nM
Substance: MurC (from UniProt P17952)
